± gives the uncertainty stated by the source.

Consider 44 variants from the Human Domainome abundance scans (Beltran et al. 2025).

To fix the notation:
B1: Proto-oncogene vav, residues 782 to 842; numbered along this chain, P15498 (parent)
chain: KYFGTAKARYDFCARDRSELSLKEGDIIKILNKKGQQGWWRGEIYGRVGWFPANYVEEDYS

Variants of B1 are the subject of this series. The series is described as follows: abundance fitness (aPCA) (normalised: wild type 0, dead -1); higher = more abundant; growth selection in yeast, the domain comes from the species named. To be noted: Homo sapiens.
As to KYFGTALARYDFCARDRSELSLKEGDIIKILNKKGQQGWWRGEIYGRVGWFPANYVEEDYS [K7L], the abundance fitness is -0.191 ± 0.058.
For KYFGTANARYDFCARDRSELSLKEGDIIKILNKKGQQGWWRGEIYGRVGWFPANYVEEDYS [K7N] the value was -0.797 ± 0.42; for KYFGTAAARYDFCARDRSELSLKEGDIIKILNKKGQQGWWRGEIYGRVGWFPANYVEEDYS [K7A], -0.475 ± 0.1; for KYFGTAVARYDFCARDRSELSLKEGDIIKILNKKGQQGWWRGEIYGRVGWFPANYVEEDYS [K7V], -0.152 ± 0.083.
For KYFGTASARYDFCARDRSELSLKEGDIIKILNKKGQQGWWRGEIYGRVGWFPANYVEEDYS [K7S], the abundance fitness was -0.381 ± 0.089.
As for KYFGTADARYDFCARDRSELSLKEGDIIKILNKKGQQGWWRGEIYGRVGWFPANYVEEDYS [K7D], the figure is -0.766 ± 0.39; as for KYFGTAWARYDFCARDRSELSLKEGDIIKILNKKGQQGWWRGEIYGRVGWFPANYVEEDYS [K7W], -0.407 ± 0.099; as for KYFGTAHARYDFCARDRSELSLKEGDIIKILNKKGQQGWWRGEIYGRVGWFPANYVEEDYS [K7H], -0.233 ± 0.21.
As for KYFGTAGARYDFCARDRSELSLKEGDIIKILNKKGQQGWWRGEIYGRVGWFPANYVEEDYS [K7G], the figure is -0.629 ± 0.13; as for KYFGTAYARYDFCARDRSELSLKEGDIIKILNKKGQQGWWRGEIYGRVGWFPANYVEEDYS [K7Y], -0.133 ± 0.16; as for KYFGTACARYDFCARDRSELSLKEGDIIKILNKKGQQGWWRGEIYGRVGWFPANYVEEDYS [K7C], -0.04 ± 0.14.
For KYFGTAEARYDFCARDRSELSLKEGDIIKILNKKGQQGWWRGEIYGRVGWFPANYVEEDYS [K7E] the value was -0.511 ± 0.12.
Regarding KYFGTAKARNDFCARDRSELSLKEGDIIKILNKKGQQGWWRGEIYGRVGWFPANYVEEDYS [Y10N], the abundance fitness was -0.393 ± 0.24.
For KYFGTAKARIDFCARDRSELSLKEGDIIKILNKKGQQGWWRGEIYGRVGWFPANYVEEDYS [Y10I] the value was -0.115 ± 0.1.
Regarding KYFGTAKAREDFCARDRSELSLKEGDIIKILNKKGQQGWWRGEIYGRVGWFPANYVEEDYS [Y10E], the abundance fitness was -0.13 ± 0.099.
For KYFGTAKARLDFCARDRSELSLKEGDIIKILNKKGQQGWWRGEIYGRVGWFPANYVEEDYS [Y10L], the abundance fitness is -0.122 ± 0.07.
As for KYFGTAKARGDFCARDRSELSLKEGDIIKILNKKGQQGWWRGEIYGRVGWFPANYVEEDYS [Y10G], the figure is -0.177 ± 0.05; as for KYFGTAKARWDFCARDRSELSLKEGDIIKILNKKGQQGWWRGEIYGRVGWFPANYVEEDYS [Y10W], -0.116 ± 0.087.
Take KYFGTAKARCDFCARDRSELSLKEGDIIKILNKKGQQGWWRGEIYGRVGWFPANYVEEDYS [Y10C]: the abundance fitness was -0.338 ± 0.1.
For KYFGTAKARVDFCARDRSELSLKEGDIIKILNKKGQQGWWRGEIYGRVGWFPANYVEEDYS [Y10V] the value was -0.184 ± 0.068; for KYFGTAKARKDFCARDRSELSLKEGDIIKILNKKGQQGWWRGEIYGRVGWFPANYVEEDYS [Y10K], 0.047 ± 0.11; for KYFGTAKARPDFCARDRSELSLKEGDIIKILNKKGQQGWWRGEIYGRVGWFPANYVEEDYS [Y10P], -0.847 ± 0.18.
As for KYFGTAKARSDFCARDRSELSLKEGDIIKILNKKGQQGWWRGEIYGRVGWFPANYVEEDYS [Y10S], the figure is 0.044 ± 0.059; as for KYFGTAKARDDFCARDRSELSLKEGDIIKILNKKGQQGWWRGEIYGRVGWFPANYVEEDYS [Y10D], -0.305 ± 0.11.
As for KYFGTAKARMDFCARDRSELSLKEGDIIKILNKKGQQGWWRGEIYGRVGWFPANYVEEDYS [Y10M], the figure is 0.098 ± 0.11; as for KYFGTAKARHDFCARDRSELSLKEGDIIKILNKKGQQGWWRGEIYGRVGWFPANYVEEDYS [Y10H], 0.079 ± 0.13.
As to KYFGTAKARQDFCARDRSELSLKEGDIIKILNKKGQQGWWRGEIYGRVGWFPANYVEEDYS [Y10Q], the abundance fitness came out at 0.107 ± 0.11.
For KYFGTAKARADFCARDRSELSLKEGDIIKILNKKGQQGWWRGEIYGRVGWFPANYVEEDYS [Y10A] the value was 0.029 ± 0.064; for KYFGTAKPRYDFCARDRSELSLKEGDIIKILNKKGQQGWWRGEIYGRVGWFPANYVEEDYS [A8P], -0.606 ± 0.13; for KYFGTAKIRYDFCARDRSELSLKEGDIIKILNKKGQQGWWRGEIYGRVGWFPANYVEEDYS [A8I], -0.535 ± 0.23.
As for KYFGTAKCRYDFCARDRSELSLKEGDIIKILNKKGQQGWWRGEIYGRVGWFPANYVEEDYS [A8C], the figure is -0.582 ± 0.2; as for KYFGTAKMRYDFCARDRSELSLKEGDIIKILNKKGQQGWWRGEIYGRVGWFPANYVEEDYS [A8M], -0.727 ± 0.26.
Consider KYFGTAKQRYDFCARDRSELSLKEGDIIKILNKKGQQGWWRGEIYGRVGWFPANYVEEDYS [A8Q], for which the abundance fitness is -0.956 ± 0.35.
For KYFGTAKDRYDFCARDRSELSLKEGDIIKILNKKGQQGWWRGEIYGRVGWFPANYVEEDYS [A8D] the value was -0.864 ± 0.38; for KYFGTAKVRYDFCARDRSELSLKEGDIIKILNKKGQQGWWRGEIYGRVGWFPANYVEEDYS [A8V], -0.035 ± 0.069.
As for KYFGTAKERYDFCARDRSELSLKEGDIIKILNKKGQQGWWRGEIYGRVGWFPANYVEEDYS [A8E], the figure is -0.745 ± 0.14; as for KYFGTAKTRYDFCARDRSELSLKEGDIIKILNKKGQQGWWRGEIYGRVGWFPANYVEEDYS [A8T], -0.756 ± 0.19.
As for KYFGTAKLRYDFCARDRSELSLKEGDIIKILNKKGQQGWWRGEIYGRVGWFPANYVEEDYS [A8L], the abundance fitness was -0.731 ± 0.14.
For KYFGTAKGRYDFCARDRSELSLKEGDIIKILNKKGQQGWWRGEIYGRVGWFPANYVEEDYS [A8G] the value was -0.953 ± 0.11.
For KYFGTAKFRYDFCARDRSELSLKEGDIIKILNKKGQQGWWRGEIYGRVGWFPANYVEEDYS [A8F] the value was -0.785 ± 0.26; for KYFGTAKRRYDFCARDRSELSLKEGDIIKILNKKGQQGWWRGEIYGRVGWFPANYVEEDYS [A8R], -0.903 ± 0.12.
As for KYFGTAKYRYDFCARDRSELSLKEGDIIKILNKKGQQGWWRGEIYGRVGWFPANYVEEDYS [A8Y], the figure is -0.708 ± 0.38; as for KYFGTAKWRYDFCARDRSELSLKEGDIIKILNKKGQQGWWRGEIYGRVGWFPANYVEEDYS [A8W], -1.04 ± 0.32; as for KYFGTAKHRYDFCARDRSELSLKEGDIIKILNKKGQQGWWRGEIYGRVGWFPANYVEEDYS [A8H], -0.62 ± 0.21.
